{
  "source": "paper PMC3637499",
  "molecules": {"B1": {"name": "Delta-RFP (natural protein)", "chain": "QVHSSGSFELRLKYFSNDHGRDNEGRCCSGESDGATGKCLGSCKTRFRVCLKHYQATIDTTSQCTYGDVITPILGENSVNLTDAQRFQNKGFTNPIQFPFSFSWPGTFSLIVEAWHDTNNSGNARTNKLLIQRLLVQQVLEVSSEWKTNKSESQYTSLEYDFRVTCDLNYYGSGCAKFCRPRDDSFGHSTCSETGEIICLTGWQGDYCHIPKCAKGCEHGHCDKPNQCVCQLGWKGALCNECVLEPNCIHGTCNKPWTCICNEGWGGLYCNQDLNYCTNHRPCKNGGTCFNTGEGLYTCKCAPGYSGDDCENEIYSCDADVNPCQNGGTCIDEPHTKTGYKCHCANGWSGKMCEEKVLTCSDKPCHQGICRNVRPGLGSKGQGYQCECPIGYSGPNCDLQLDNCSPNPCINGGSCQPSGKCICPAGFSGTRCETNIDDCLGHQCENGGTCIDMVNQYRCQCVPGFHGTHCSSKVDLCLIRPCANGGTCLNLNNDYQCTCRAGFTGKDCSVDIDECSSGPCHNGGTCMNRVNSFECVCANGFRGKQCDEESYDSVTFDAHQYGATTQARADGLTNAQVVLIAVFSVAMPLVAVIAACVVFCMKRKRKRAQEKDDAEARKQNEQNAVATMHHNGSGVGVALASASLGGKTGSNSGLTFDGGNPNIIKNTWDKSVNNICASAAAAAAAAAAADECLMYGGYVASVADNNNANSDFCVAPLQRAKSQKQLNTDPTLMHRGSPAGSSAKGASGGGPGAAEGKRISVLGEGSYCSQRWPSLAAAGVAGACSSQLMAAASVAGSGAGTAQQQRSVVCGTPHM"}, "B2": {"name": "Chico-RFP (natural protein)", "chain": "MASISDDGMALSGYLKKLKTMKKKFFVLYEETSTSAARLEYYDTEKKFLQRAEPKRVIYLKNCFNINRRLDTKHRFVIVLSSRDGGFGIVLENENDLRKWLDKLLVLQRNIANSNGTAHSPYDHVWQVVIQKKGISEKVGITGTYHCCLTSKSLTFVCIGPEKTPNGEDRVASIEILLTTIRRCGHASPQCIFYVELGRQSVLGSGDLWMETDNAAIATNMHNTILSAMSAKTESNTNLINVYQNRPDLSHEPMRKRSSSANEASKPINVNVIQNSQNSLELRSCSSPHNYGFGRERCDSLPTRNGTLSESSNQTYFGSNHGLRSNTISGIRPHSTNKHSNSPTFTMPLRCSESEESSISVDESDDNGSFSHYRLNTRSSETAIPEENIDDFASAELFSKVTEQNVSDENYIPMNPVNPTDAIHEKEKADMQRLEDASLHFNFPEHASEKLAKDFDLDSDNQCCRPIRAYSIGNKVEHLKFNKRLGHLNDTGQNPNRVRAYSVGSKSKIPRCDLQRVVLVEDNKHEFTANRSQSSITKEGTSYGSSANRQKKSTSAPLLSLKNQINSDRMSDLMEIDFSQATNLEKQKFIKNNEIPKYIENVFPKAPRTDSSSLTLHATSQKDIFNGTKLNNTAITSEDGYLEMKPVGNGYTPSSNCLPMKVEKLKLSDYQTAPPLTATAAPVHDLNKISTYNISAEKWREQPSRSEEKKSNSPLNDNTFSSKPTNVESTSKSHDVHSANQIDCEKVCAQSSDKLNNHLADKIVENNNLDIGGHEEKKLVHSISSEDYTQIKDKSNDFTKFNEAGYKILQIKSDSSLISSKLYQKGIHKDNLERSQRLTESVNTIPDNATATAVSSSSLTKFNINSAKPAAAADSRSTGTDPSTPQNILQIKDLNFPSRSSSRISQPELHYASLDLPHCSGQNPAKYLKRGSRESPPVSACPEDGNTYAKIDFDQSDSSSSSSNIFNT"}},
  "key": {"Chico-RFP (Drosophila) [1]": {"target": "Chico-RFP (Drosophila) (UniProt Q9XTN2)", "assay": "FRET or BRET; sensitised emission FRET, CFP donor and mRFP acceptor, confocal microscopy of fixed larval salivary glands co-expressing both fusions (hsp-Gal4); glands incubated 15 min in Schneider's medium without insulin; FRETeff >=10% taken as positive"}, "Chico-RFP (Drosophila) [2]": {"target": "Chico-RFP (Drosophila) (UniProt Q9XTN2)", "assay": "FRET or BRET; sensitised emission FRET, CFP donor and mRFP acceptor, confocal microscopy of fixed larval salivary glands co-expressing both fusions (hsp-Gal4); glands incubated 15 min in Schneider's medium with insulin (100 nM); FRETeff >=10% taken as positive"}, "InR-CFP (Drosophila) [3]": {"target": "InR-CFP (Drosophila) (UniProt P09208)", "sequence (P09208 1086-2144)": "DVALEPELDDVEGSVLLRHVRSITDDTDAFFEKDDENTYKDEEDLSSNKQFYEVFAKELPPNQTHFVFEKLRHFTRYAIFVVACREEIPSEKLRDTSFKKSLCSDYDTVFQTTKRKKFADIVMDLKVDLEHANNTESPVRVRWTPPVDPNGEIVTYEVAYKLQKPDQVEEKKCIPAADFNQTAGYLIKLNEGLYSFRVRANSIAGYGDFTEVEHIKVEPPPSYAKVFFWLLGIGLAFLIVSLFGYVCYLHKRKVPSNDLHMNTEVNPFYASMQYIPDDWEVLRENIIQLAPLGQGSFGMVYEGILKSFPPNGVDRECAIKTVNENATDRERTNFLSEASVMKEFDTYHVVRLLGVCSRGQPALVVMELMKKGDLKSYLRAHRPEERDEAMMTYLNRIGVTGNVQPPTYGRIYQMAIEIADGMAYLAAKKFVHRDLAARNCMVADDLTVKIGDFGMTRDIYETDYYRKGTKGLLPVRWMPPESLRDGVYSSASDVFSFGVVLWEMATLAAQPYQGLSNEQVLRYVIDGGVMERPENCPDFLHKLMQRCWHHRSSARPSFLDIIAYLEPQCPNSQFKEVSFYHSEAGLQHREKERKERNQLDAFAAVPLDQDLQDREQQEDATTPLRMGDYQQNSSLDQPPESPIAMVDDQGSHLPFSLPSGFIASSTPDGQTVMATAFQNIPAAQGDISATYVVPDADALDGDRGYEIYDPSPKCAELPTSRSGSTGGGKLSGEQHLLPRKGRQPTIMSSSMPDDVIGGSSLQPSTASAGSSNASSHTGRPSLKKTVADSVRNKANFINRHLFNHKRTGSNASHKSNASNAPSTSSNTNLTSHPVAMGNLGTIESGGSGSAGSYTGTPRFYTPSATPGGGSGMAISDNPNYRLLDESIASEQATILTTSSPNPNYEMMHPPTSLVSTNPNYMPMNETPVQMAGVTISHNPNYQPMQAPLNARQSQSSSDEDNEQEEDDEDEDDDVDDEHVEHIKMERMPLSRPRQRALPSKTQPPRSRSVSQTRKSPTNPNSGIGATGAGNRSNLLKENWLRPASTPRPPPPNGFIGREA", "assay": "FRET or BRET; sensitised emission FRET, CFP donor and mRFP acceptor, confocal microscopy of fixed larval salivary glands co-expressing both fusions (hsp-Gal4); glands incubated 15 min in Schneider's medium without insulin; FRETeff >=10% taken as positive"}, "InR-CFP (Drosophila) [4]": {"target": "InR-CFP (Drosophila) (UniProt P09208)", "assay": "FRET or BRET; sensitised emission FRET, CFP donor and mRFP acceptor, confocal microscopy of fixed larval salivary glands co-expressing both fusions (hsp-Gal4); glands incubated 15 min in Schneider's medium with insulin (100 nM); FRETeff >=10% taken as positive"}, "InR-CFP (Drosophila) [5]": {"target": "InR-CFP (Drosophila) (UniProt P09208)", "assay": "FRET or BRET; sensitised emission FRET, negative controls with Delta-RFP as acceptor in fixed larval salivary glands; insulin condition not stated; absence of FRET yields values <3%"}, "Lnk-CFP (Drosophila)": {"target": "Lnk-CFP (Drosophila)", "assay": "FRET or BRET; sensitised emission FRET, negative controls with Delta-RFP as acceptor in fixed larval salivary glands; insulin condition not stated; absence of FRET yields values <3%"}, "InR-CFP (Drosophila) [6]": {"target": "InR-CFP (Drosophila) (UniProt P09208)", "assay": "FRET or BRET; sensitised emission FRET, CFP donor and mRFP acceptor, confocal microscopy of fixed larval salivary glands co-expressing both fusions (hsp-Gal4); glands incubated 15 min in Schneider's medium without insulin; FRETeff >=10% taken as positive", "remark": "listed apart in the source"}, "InR-CFP (Drosophila) [7]": {"target": "InR-CFP (Drosophila) (UniProt P09208)", "assay": "FRET or BRET; sensitised emission FRET, CFP donor and mRFP acceptor, confocal microscopy of fixed larval salivary glands co-expressing both fusions (hsp-Gal4); glands incubated 15 min in Schneider's medium with insulin (100 nM); FRETeff >=10% taken as positive", "remark": "listed apart in the source"}},
  "data": [
    {"molecule": "Lnk-CFP (natural protein)", "values": [
      {"measurement": "FRET efficiency (FRETeff)", "setting": "Chico-RFP (Drosophila) [1]", "value": 13.3, "unit": "%"},
      {"measurement": "percent of tissue samples with positive FRET", "setting": "Chico-RFP (Drosophila) [1]", "value": 30, "unit": "%"},
      {"measurement": "FRET efficiency (FRETeff)", "setting": "Chico-RFP (Drosophila) [2]", "value": 14.8, "unit": "%"},
      {"measurement": "percent of tissue samples with positive FRET", "setting": "Chico-RFP (Drosophila) [2]", "value": 73, "unit": "%"}
    ]},
    {"molecule": "Lnk-RFP (natural protein)", "values": [
      {"measurement": "FRET efficiency (FRETeff)", "setting": "InR-CFP (Drosophila) [3]", "value": 10.8, "unit": "%"},
      {"measurement": "percent of tissue samples with positive FRET", "setting": "InR-CFP (Drosophila) [3]", "value": 60, "unit": "%"},
      {"measurement": "FRET efficiency (FRETeff)", "setting": "InR-CFP (Drosophila) [4]", "value": 14, "unit": "%"},
      {"measurement": "percent of tissue samples with positive FRET", "setting": "InR-CFP (Drosophila) [4]", "value": 53, "unit": "%"}
    ]},
    {"molecule": "B1", "values": [
      {"measurement": "FRET efficiency (FRETeff)", "setting": "InR-CFP (Drosophila) [5]", "value": "< 3", "unit": "%"},
      {"measurement": "FRET efficiency (FRETeff)", "setting": "Lnk-CFP (Drosophila)", "value": "< 3", "unit": "%"}
    ]},
    {"molecule": "B2", "values": [
      {"measurement": "FRET efficiency (FRETeff)", "setting": "InR-CFP (Drosophila) [6]", "value": 13.5, "unit": "%"},
      {"measurement": "percent of tissue samples with positive FRET", "setting": "InR-CFP (Drosophila) [6]", "value": 20, "unit": "%"},
      {"measurement": "FRET efficiency (FRETeff)", "setting": "InR-CFP (Drosophila) [7]", "value": 14.1, "unit": "%"},
      {"measurement": "percent of tissue samples with positive FRET", "setting": "InR-CFP (Drosophila) [7]", "value": 71, "unit": "%"}
    ]}
  ]
}
